Measurements as given in patent US20170072013A1 (MEDINCELL, published 2017).
Square brackets hold non-standard residues; d marks the D form.

B1: Analog 8 (SEQ ID NO:9), Ac-rlGwsvGipGswrplpaappppadlrdq-NH2 (peptide)
peptide: Ac-[dR][dL]G[dW][dS][dV]G[dI][dP]G[dS][dW][dR][dP][dL][dP][dA][dA][dP][dP][dP][dP][dA][dD][dL][dR][dD][dQ]-NH2
SMILES: CC[C@@H](C)[C@@H](NC(=O)CNC(=O)[C@H](NC(=O)[C@@H](CO)NC(=O)[C@@H](Cc1c[nH]c2ccccc12)NC(=O)CNC(=O)[C@@H](CC(C)C)NC(=O)[C@@H](CCCNC(=N)N)NC(C)=O)C(C)C)C(=O)N1CCC[C@@H]1C(=O)NCC(=O)N[C@H](CO)C(=O)N[C@H](Cc1c[nH]c2ccccc12)C(=O)N[C@H](CCCNC(=N)N)C(=O)N1CCC[C@@H]1C(=O)N[C@H](CC(C)C)C(=O)N1CCC[C@@H]1C(=O)N[C@H](C)C(=O)N[C@H](C)C(=O)N1CCC[C@@H]1C(=O)N1CCC[C@@H]1C(=O)N1CCC[C@@H]1C(=O)N1CCC[C@@H]1C(=O)N[C@H](C)C(=O)N[C@H](CC(=O)O)C(=O)N[C@H](CC(C)C)C(=O)N[C@H](CCCNC(=N)N)C(=O)N[C@H](CC(=O)O)C(=O)N[C@H](CCC(N)=O)C(N)=O
B2: Analog 2 (SEQ ID NO:3), Ac-APLPRWSGPIGVSWGLR-NH2 (peptide)
peptide: Ac-APLPRWSGPIGVSWGLR-NH2
B3: Analog 3 (SEQ ID NO:4), Ac-rlGwsvGipGswrplpa-NH2 (peptide)
peptide: Ac-[dR][dL]G[dW][dS][dV]G[dI][dP]G[dS][dW][dR][dP][dL][dP][dA]-NH2
SMILES: CC[C@@H](C)[C@@H](NC(=O)CNC(=O)[C@H](NC(=O)[C@@H](CO)NC(=O)[C@@H](Cc1c[nH]c2ccccc12)NC(=O)CNC(=O)[C@@H](CC(C)C)NC(=O)[C@@H](CCCNC(=N)N)NC(C)=O)C(C)C)C(=O)N1CCC[C@@H]1C(=O)NCC(=O)N[C@H](CO)C(=O)N[C@H](Cc1c[nH]c2ccccc12)C(=O)N[C@H](CCCNC(=N)N)C(=O)N1CCC[C@@H]1C(=O)N[C@H](CC(C)C)C(=O)N1CCC[C@@H]1C(=O)N[C@H](C)C(N)=O
B4: Analog 13 (SEQ ID NO:14), Ac-APLPRWSAPIAVSWALR-NH2 (peptide)
peptide: Ac-APLPRWSAPIAVSWALR-NH2
B5: Analog 14 (SEQ ID NO:15), Ac-rlawsvaipaswrplpa-NH2 (peptide)
peptide: Ac-[dR][dL][dA][dW][dS][dV][dA][dI][dP][dA][dS][dW][dR][dP][dL][dP][dA]-NH2
SMILES: CC[C@@H](C)[C@@H](NC(=O)[C@@H](C)NC(=O)[C@H](NC(=O)[C@@H](CO)NC(=O)[C@@H](Cc1c[nH]c2ccccc12)NC(=O)[C@@H](C)NC(=O)[C@@H](CC(C)C)NC(=O)[C@@H](CCCNC(=N)N)NC(C)=O)C(C)C)C(=O)N1CCC[C@@H]1C(=O)N[C@H](C)C(=O)N[C@H](CO)C(=O)N[C@H](Cc1c[nH]c2ccccc12)C(=O)N[C@H](CCCNC(=N)N)C(=O)N1CCC[C@@H]1C(=O)N[C@H](CC(C)C)C(=O)N1CCC[C@@H]1C(=O)N[C@H](C)C(N)=O
B6: Analog 15 (SEQ ID NO:20), c(rlGwsvGipGswrplpa) (peptide)
peptide: cyclo([dR][dL]G[dW][dS][dV]G[dI][dP]G[dS][dW][dR][dP][dL][dP][dA])
SMILES: CC[C@@H](C)[C@H]1NC(=O)CNC(=O)[C@@H](C(C)C)NC(=O)[C@@H](CO)NC(=O)[C@@H](Cc2c[nH]c3ccccc23)NC(=O)CNC(=O)[C@@H](CC(C)C)NC(=O)[C@@H](CCCNC(=N)N)NC(=O)[C@@H](C)NC(=O)[C@H]2CCCN2C(=O)[C@@H](CC(C)C)NC(=O)[C@H]2CCCN2C(=O)[C@@H](CCCNC(=N)N)NC(=O)[C@@H](Cc2c[nH]c3ccccc23)NC(=O)[C@@H](CO)NC(=O)CNC(=O)[C@H]2CCCN2C1=O
B7: Analog 16 (SEQ ID NO:21), c(rlGwsvGipGswrplparlGwsvGipGswrplpa) (peptide)
peptide: cyclo([dR][dL]G[dW][dS][dV]G[dI][dP]G[dS][dW][dR][dP][dL][dP][dA][dR][dL]G[dW][dS][dV]G[dI][dP]G[dS][dW][dR][dP][dL][dP][dA])
SMILES: CC[C@@H](C)[C@H]1NC(=O)CNC(=O)[C@@H](C(C)C)NC(=O)[C@@H](CO)NC(=O)[C@@H](Cc2c[nH]c3ccccc23)NC(=O)CNC(=O)[C@@H](CC(C)C)NC(=O)[C@@H](CCCNC(=N)N)NC(=O)[C@@H](C)NC(=O)[C@H]2CCCN2C(=O)[C@@H](CC(C)C)NC(=O)[C@H]2CCCN2C(=O)[C@@H](CCCNC(=N)N)NC(=O)[C@@H](Cc2c[nH]c3ccccc23)NC(=O)[C@@H](CO)NC(=O)CNC(=O)[C@H]2CCCN2C(=O)[C@@H]([C@H](C)CC)NC(=O)CNC(=O)[C@@H](C(C)C)NC(=O)[C@@H](CO)NC(=O)[C@@H](Cc2c[nH]c3ccccc23)NC(=O)CNC(=O)[C@@H](CC(C)C)NC(=O)[C@@H](CCCNC(=N)N)NC(=O)[C@@H](C)NC(=O)[C@H]2CCCN2C(=O)[C@@H](CC(C)C)NC(=O)[C@H]2CCCN2C(=O)[C@@H](CCCNC(=N)N)NC(=O)[C@@H](Cc2c[nH]c3ccccc23)NC(=O)[C@@H](CO)NC(=O)CNC(=O)[C@H]2CCCN2C1=O

Each binder was assayed against T1, human TREK-1 potassium channel expressed in the h-TREK-1/HEK cell line (human, UniProt O95069 1-426) (assay: cell-based or functional assay).
T1 sequence (looked up): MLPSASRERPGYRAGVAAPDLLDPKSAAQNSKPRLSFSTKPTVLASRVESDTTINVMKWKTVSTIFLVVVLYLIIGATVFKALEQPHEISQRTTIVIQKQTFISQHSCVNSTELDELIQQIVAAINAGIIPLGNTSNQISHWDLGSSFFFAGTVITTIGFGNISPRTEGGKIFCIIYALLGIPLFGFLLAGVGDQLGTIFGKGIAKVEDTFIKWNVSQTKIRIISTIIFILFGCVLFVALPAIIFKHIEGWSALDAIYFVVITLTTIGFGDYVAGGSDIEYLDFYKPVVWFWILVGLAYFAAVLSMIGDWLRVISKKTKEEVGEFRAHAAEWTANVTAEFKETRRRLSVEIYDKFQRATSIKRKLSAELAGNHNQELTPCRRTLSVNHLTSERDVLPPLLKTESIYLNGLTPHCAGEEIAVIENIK

First: B1
Second: B2
The “IC50 of TREK-1 current inhibition (dose-response, whole cell patch clamp, 0 mV)” value (“IC50 of TREK-1 current inhibition” for short) of the first is 6-fold lower: 9.95 nM for the first, 60 nM for the second.

First: B3
Second: B4
The “IC50 of TREK-1 current inhibition” value of the first is 290-fold higher: 11.5 nM for the first, 0.04 nM for the second.

Going from B5 to B6, the “IC50 of TREK-1 current inhibition” value rises from 0.004 nM to 0.04 nM (10-fold).

With B7 the “IC50 of TREK-1 current inhibition” value was 0.001 nM.

B1 and B3 are the same in “fold higher affinity for TREK-1 channels than spadin, inferred from the IC50 of current inhibition” value: 6 fold for the first, 6 fold for the second.
